Reference: article PMC3726526, “Structural and Functional Characterization of the Recombinant Death Domain from Death-Associated Protein Kinase” (PLoS ONE, 2013)

Target: T1, GST-ERK2 (extracellular-regulated kinase-2) (human, UniProt P28482 1-360)
T1 construct: full length human ERK2 in pGEX-6-P3, N-terminal GST with a PreScission protease site; The methods and results of the ITC say 'ERK2'; the discussion says that the ITC and CD were done with GST-ERK2; source: E. coli BL21 codon plus; in cell lysate, held on glutathione beads (pull-down); large scale production as previously described [25]; (ITC); not shown: GST, N-terminal, kept
T1 sequence (P28482 whole entry): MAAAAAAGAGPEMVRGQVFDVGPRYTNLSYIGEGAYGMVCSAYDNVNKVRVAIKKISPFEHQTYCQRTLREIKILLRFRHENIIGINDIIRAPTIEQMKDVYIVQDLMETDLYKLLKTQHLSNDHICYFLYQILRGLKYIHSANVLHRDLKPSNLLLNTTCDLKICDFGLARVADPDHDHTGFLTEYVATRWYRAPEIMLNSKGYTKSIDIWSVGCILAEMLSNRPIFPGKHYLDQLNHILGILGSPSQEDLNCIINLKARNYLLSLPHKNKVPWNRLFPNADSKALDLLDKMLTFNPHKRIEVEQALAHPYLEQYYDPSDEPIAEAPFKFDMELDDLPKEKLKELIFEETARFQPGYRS
Assay: ITC; VP-ITC, 25 C; 19 injections of 15 ul of 159 uM GB1-DAPk-DD(L) or 250 uM GB1-DAPk-DD(S) into 1.45 ml of 8.85-18.6 uM ERK2; 50 mM HEPES pH 7.5, 50 mM NaCl, 1 mM TCEP, 1 mM EDTA
Details: both partners purified

Binder | Kd [nM] | dH [kcal/mol] | stoichiometry N
GB1-DAPk-DD(L) (domain or fragment, human, UniProt P53355 1293-1408, looked up, death domain region of human death-associated protein kinase (DAPk, DAPK1) with a nine-residue C-terminal extension from the Ser-rich tail, residues 1293-1408; Made by mutagenesis of a GEV vector holding residues 1293-1431; intact GB1 fusion in all experiments; Predicted monomer mass 20.6 kDa; also called long GB1-DAPk-DD construct; full-length DAPk-DD (long variant); source: E. coli BL21 codon …) QASLGMDIHASDLNLLTRRKLSRLLDPPDPLGKDWCLLAMNLGLPDLVAKYNTSNGAPKDFLPSPLHALLREWTTYPESTVGTLMSKLRELGRRDAADFLLKASSVFKINLDGNGQ | 920 | -9.18 | 1.03 ± 0.01
GB1-DAPk-DD(S) (domain or fragment, human, UniProt P53355 1293-1399, looked up, death domain region of human death-associated protein kinase (DAPk, DAPK1), residues 1293-1399; Cloned between BamHI and XhoI of plasmid GEV2; all experiments were done with the intact GB1 fusion (thrombin not used); Predicted monomer mass 19.6 kDa; By the primers the XhoI site should add Leu-Glu before the His6 tag (surmised); also called short GB1-DAPk-DD construct; full-length DAPk-DD (short …)) QASLGMDIHASDLNLLTRRKLSRLLDPPDPLGKDWCLLAMNLGLPDLVAKYNTSNGAPKDFLPSPLHALLREWTTYPESTVGTLMSKLRELGRRDAADFLLKASSVF | 1770 | -12.7 | 0.97 ± 0.01
